# Test results: PMC3445780
# Molecular target: EphB4 receptor (UniProt P54760)
# Test: SPR
# Chain of UniProt P54760 (P54760 16-987): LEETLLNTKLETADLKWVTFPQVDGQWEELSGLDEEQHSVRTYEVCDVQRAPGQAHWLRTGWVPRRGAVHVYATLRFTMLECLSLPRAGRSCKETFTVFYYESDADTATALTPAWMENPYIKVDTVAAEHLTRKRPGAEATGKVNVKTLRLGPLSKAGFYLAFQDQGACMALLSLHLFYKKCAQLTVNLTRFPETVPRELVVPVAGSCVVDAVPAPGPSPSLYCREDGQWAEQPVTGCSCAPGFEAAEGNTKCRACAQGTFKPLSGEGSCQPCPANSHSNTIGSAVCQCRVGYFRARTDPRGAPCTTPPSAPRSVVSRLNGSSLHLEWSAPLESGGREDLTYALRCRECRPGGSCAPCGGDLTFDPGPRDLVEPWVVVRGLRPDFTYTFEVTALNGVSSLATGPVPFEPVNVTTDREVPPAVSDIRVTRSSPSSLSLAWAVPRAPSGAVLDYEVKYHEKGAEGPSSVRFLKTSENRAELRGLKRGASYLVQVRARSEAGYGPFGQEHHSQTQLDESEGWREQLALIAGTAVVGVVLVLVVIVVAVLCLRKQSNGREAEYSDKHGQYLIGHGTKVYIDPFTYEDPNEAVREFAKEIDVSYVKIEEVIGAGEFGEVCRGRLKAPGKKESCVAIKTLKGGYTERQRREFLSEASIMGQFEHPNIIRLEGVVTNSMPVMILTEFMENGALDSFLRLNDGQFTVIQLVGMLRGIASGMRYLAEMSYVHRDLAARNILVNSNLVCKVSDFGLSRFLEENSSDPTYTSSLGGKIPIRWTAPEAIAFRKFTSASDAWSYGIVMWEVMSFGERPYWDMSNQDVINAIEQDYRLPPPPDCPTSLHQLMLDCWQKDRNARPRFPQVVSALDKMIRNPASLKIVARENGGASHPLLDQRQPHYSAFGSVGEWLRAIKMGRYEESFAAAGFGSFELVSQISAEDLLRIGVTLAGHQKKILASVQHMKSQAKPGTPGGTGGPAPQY
substance,measurement,value
cyclic peptide c(TNYL-RAW),Kd,4.4 nM
